Laboratory results reported in patent KR20170108690A (dated 2017).

Biological target: T1, BSA (UniProt P02769 25-607)
T1 construct: also called 음성 대조군; 대조군
Experiment: ELISA of clone supernatant on coated antigen

T1 sequence (P02769 25-607 limits assumed): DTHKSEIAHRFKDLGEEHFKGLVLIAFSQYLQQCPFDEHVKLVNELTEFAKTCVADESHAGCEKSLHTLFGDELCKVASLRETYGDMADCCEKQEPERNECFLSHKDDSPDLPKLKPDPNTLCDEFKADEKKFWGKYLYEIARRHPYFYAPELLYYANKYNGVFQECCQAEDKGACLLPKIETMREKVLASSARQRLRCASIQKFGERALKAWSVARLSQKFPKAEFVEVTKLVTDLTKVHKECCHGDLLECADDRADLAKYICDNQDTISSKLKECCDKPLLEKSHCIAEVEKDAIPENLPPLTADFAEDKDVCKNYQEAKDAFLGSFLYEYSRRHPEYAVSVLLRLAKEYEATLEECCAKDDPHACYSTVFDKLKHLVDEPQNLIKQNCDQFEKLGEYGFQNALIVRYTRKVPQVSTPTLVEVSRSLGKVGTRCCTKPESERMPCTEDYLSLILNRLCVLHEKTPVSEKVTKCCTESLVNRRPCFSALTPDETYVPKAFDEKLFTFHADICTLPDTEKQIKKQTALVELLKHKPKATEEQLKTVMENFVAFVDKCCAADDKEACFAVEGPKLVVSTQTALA

B1: NA-A4 항체 클론 (Fab 형태, 파지 디스플레이 클론의 IPTG 유도 상층액) (Fab, V domains shown)
VH: EVQLVESGGGLVQPGGSLRLSCAASGFTFNSYWMSWVRQAPGKGLEWVSWITPTSGTTYYADSVKGRFTISRDNSKNTLYLQMNSLRAEDTAVYYCARVEDWDIGYYGMDYWGQGTLVTVSS
VL: DIQMTQSPSSLSASVGDRVTITCRASQSVSNWLAWYQQKPGKAPKLLIYWASSLESGVPSRFSGSGSGTDFTLTISSLQPEDFATYYCQQYYNHPYTFGQGTKVEIK
notes: also called Influenza NA-A4 antibody; 인플루엔자 NA-A4 항체
binding result: no binding
